Tests used:
[1] = target: ANG variant H13A (human, UniProt P03950 25-147, H13A); assay: ELISA
[2] = target: Angiogenin (ANG), human recombinant (human, UniProt P03950 25-147); assay: equilibrium dialysis
Sequence of Angiogenin (ANG), human recombinant (P03950 25-147): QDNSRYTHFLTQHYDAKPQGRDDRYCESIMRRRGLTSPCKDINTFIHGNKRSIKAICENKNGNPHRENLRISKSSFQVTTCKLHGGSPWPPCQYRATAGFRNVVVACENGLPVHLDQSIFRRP

Sequence of ANG variant H13A (P03950 25-147 H37A): as the sequence (P03950 25-147) above, with H13A counted along it

- binding result [1]: binds
- binding result [2]: binds
Binder: TSSEYDSILVEINKR [PLXNB2 peptide hplb2-15-06]

— paper PMC5847377 (Cell, 2017)
